Holding throughout (assay): cell-based or functional assay
In assay [1] the target is T1, Activated human plasma kallikrein (Enzyme Research Laboratories, HPKa 1303) (human, UniProt P03952 20-638).
In assay [2] the target is T1, Activated human plasma kallikrein …. This is another data set of the same source.
For assay [3], the target named is mouse plasma kallikrein (R&D Systems) (mouse, UniProt P26262 20-638).
In assay [4] the target is T2, Factor VIIa (Enzyme Research Laboratories) (human, UniProt P08709 61-466).
T2 sequence (looked up): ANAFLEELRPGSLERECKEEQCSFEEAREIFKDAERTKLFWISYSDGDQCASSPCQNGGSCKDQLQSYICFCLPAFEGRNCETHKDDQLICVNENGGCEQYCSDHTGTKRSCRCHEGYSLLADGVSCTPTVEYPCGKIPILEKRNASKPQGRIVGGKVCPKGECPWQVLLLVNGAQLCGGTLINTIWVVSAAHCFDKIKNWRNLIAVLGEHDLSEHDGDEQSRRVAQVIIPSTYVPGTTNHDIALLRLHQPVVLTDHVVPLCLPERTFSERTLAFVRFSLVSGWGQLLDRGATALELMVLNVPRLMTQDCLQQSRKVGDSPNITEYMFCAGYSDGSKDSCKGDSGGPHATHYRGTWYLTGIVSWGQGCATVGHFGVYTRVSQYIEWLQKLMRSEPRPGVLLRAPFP

For assay [5], the target named is Factor Xa (Enzyme Research Laboratories) (human, UniProt P00742 41-488, limits assumed).
Assay [6] deals with Factor XIa (Enzyme Research Laboratories) (human, UniProt P03951 19-625).
Assay [7] concerns the target T3, Factor XIIa (Enzyme Research Laboratories) (human, UniProt P00748 20-615, limits assumed).
T3 sequence (looked up): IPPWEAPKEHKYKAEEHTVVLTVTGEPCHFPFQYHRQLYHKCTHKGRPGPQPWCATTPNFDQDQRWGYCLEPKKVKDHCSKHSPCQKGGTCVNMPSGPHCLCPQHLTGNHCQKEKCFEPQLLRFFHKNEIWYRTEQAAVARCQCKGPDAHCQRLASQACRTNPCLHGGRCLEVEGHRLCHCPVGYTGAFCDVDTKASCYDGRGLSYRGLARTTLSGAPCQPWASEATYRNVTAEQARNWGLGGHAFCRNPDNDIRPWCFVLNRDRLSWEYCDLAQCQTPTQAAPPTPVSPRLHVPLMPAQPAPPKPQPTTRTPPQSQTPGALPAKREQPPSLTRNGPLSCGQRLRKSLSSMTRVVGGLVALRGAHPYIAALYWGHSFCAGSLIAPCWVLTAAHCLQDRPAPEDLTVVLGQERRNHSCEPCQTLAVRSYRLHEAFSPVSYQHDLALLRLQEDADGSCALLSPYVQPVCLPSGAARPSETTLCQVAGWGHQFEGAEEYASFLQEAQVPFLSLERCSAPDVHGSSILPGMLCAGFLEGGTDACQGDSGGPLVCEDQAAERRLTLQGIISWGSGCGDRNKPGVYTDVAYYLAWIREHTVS

Assay [8] deals with T4, tissue kallikrein KLK13 (R&D Systems) (human, UniProt Q9UKR3 17-277, limits assumed).
T4 sequence (looked up): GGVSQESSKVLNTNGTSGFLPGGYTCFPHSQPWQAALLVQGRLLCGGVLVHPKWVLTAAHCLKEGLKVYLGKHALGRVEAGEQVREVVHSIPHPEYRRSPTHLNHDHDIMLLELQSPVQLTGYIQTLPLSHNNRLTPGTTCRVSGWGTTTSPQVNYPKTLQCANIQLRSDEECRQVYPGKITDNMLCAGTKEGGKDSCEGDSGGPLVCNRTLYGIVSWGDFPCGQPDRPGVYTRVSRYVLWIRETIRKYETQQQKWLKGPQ

For assay [9], the target named is thrombin (Enzyme Research Laboratories) (human, UniProt P00734 328-622).
The target of assay [10] is plasmin (Enzyme Research Laboratories) (human, UniProt P00747 97-810, limits assumed).
For assay [11], the target named is T1, Activated human plasma kallikrein …. This is another data set of the same source.
Assay [12] shares this target. The source holds these as a separate data set.

Like-named read-outs stand apart in the source and are kept apart here. Bridge positions count the residues as written; N and C are the ends. Square brackets hold non-standard residues; d marks the D form. Ends that are not written are not given here. * marks the point of attachment. mXylyl = xylyl linker from dibromoxylene joining the two cysteines; des‑NH2 = missing amino-terminal amine group; Phg = N[C@H](C(=O)O)c1ccccc1; Tle = CC(C)(C)[C@H](N)C(=O)O; NMeS = CN[C@@H](CO)C(=O)O; Heptanoyl = CCCCCCC(=O)*; Nva = CCC[C@H](N)C(=O)O Where only a bound is given, the exact number is not on record here.

Sequence of plasmin (Enzyme Research Laboratories) (P00747 97-810 limits assumed): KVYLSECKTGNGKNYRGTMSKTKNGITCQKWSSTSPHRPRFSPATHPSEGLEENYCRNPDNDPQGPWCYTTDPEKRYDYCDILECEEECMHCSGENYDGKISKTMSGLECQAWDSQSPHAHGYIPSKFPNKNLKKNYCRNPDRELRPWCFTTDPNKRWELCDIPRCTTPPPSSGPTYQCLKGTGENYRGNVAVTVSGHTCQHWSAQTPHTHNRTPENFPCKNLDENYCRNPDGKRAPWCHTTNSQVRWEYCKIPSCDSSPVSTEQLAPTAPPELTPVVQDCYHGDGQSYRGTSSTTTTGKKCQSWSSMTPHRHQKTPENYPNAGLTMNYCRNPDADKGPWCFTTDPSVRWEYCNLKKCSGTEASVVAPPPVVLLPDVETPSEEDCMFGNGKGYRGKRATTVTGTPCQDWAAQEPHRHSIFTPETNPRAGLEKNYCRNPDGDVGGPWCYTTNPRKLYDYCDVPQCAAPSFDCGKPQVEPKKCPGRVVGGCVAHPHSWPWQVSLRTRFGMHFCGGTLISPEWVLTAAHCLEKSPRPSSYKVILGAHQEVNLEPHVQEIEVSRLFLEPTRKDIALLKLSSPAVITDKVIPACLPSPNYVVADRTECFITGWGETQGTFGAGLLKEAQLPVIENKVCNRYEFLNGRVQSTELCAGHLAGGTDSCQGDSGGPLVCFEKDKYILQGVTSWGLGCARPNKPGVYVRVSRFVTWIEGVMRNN
Sequence of mouse plasma kallikrein (R&D Systems) (P26262 20-638 limits assumed): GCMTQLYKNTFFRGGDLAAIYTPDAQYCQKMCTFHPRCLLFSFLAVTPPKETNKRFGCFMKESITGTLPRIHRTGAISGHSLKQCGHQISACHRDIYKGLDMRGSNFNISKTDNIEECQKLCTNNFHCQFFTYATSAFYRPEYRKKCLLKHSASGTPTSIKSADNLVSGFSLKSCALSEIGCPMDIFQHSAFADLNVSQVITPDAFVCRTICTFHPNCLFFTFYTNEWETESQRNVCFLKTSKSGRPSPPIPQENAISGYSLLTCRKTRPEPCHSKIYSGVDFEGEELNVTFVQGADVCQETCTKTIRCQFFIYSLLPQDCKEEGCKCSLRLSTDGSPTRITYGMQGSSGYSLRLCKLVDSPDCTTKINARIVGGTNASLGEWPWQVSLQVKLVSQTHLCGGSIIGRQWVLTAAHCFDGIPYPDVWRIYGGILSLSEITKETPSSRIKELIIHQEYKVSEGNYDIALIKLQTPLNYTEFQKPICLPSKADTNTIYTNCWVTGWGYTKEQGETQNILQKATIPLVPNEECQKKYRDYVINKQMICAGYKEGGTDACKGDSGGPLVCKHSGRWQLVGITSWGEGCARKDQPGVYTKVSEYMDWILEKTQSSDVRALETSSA
Sequence of Factor XIa (Enzyme Research Laboratories) (P03951 19-625 limits assumed): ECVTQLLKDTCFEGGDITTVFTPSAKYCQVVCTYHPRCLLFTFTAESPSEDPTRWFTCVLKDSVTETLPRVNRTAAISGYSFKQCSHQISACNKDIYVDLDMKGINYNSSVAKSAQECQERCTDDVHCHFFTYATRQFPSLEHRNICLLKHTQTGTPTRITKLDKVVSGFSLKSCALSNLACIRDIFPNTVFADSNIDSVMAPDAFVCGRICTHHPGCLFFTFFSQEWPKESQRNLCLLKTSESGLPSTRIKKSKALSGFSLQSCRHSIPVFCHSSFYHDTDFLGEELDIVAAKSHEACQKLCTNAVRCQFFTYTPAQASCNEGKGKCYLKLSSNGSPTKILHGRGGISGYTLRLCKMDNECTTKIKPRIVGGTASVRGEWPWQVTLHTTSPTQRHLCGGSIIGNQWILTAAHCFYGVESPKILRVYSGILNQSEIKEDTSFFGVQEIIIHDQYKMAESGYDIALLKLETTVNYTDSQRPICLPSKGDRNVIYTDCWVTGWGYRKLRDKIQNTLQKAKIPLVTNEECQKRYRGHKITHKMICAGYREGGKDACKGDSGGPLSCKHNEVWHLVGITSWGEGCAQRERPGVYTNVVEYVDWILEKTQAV
Sequence of Factor Xa (Enzyme Research Laboratories) (P00742 41-488 limits assumed): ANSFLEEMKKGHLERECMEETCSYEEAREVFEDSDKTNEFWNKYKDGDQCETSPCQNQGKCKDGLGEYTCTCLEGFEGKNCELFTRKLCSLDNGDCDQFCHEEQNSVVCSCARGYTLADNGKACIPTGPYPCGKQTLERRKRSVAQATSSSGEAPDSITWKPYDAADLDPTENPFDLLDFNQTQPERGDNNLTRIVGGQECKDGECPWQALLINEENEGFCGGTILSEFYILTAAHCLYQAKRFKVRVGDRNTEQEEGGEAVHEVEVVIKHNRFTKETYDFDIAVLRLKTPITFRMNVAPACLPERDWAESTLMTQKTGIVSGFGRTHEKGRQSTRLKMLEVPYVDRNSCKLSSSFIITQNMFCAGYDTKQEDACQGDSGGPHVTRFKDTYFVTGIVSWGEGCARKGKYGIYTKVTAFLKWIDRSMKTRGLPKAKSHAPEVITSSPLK
T1 sequence (P03952 20-638 limits assumed): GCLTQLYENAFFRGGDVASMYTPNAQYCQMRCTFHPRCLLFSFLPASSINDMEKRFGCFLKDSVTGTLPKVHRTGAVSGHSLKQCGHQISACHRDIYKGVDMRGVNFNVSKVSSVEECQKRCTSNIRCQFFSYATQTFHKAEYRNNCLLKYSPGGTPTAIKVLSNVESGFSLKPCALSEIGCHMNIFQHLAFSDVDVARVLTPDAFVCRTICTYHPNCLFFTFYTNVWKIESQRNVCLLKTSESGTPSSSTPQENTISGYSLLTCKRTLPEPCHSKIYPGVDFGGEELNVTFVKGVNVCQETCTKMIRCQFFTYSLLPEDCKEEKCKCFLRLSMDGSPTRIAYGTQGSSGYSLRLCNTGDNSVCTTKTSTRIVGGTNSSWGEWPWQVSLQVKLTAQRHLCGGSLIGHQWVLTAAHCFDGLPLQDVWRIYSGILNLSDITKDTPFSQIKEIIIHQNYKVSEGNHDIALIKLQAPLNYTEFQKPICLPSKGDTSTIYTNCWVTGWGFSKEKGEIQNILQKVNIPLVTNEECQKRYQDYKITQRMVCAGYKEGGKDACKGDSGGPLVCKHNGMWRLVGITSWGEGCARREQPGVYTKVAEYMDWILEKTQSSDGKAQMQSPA

In the case of Ac-CESICRV-NH2 (linker 1-5 via mXylyl) [R2023], the “Avg. IC50” value in assay [1] stood at 0.019 µM. In addition, in assay [2], the “Human Kallikrein IC50” value amounted to 0.019 µM. In [3], the “Mouse Kallikrein IC50” value stood at 0.0473 µM. The “Factor VIIa IC50” value in [4] was greater than 100 µM. In addition, in assay [5], the “Factor Xa IC50” value was greater than 7 µM. Besides, the “Factor XIa IC50” value in assay [6] is greater than 12.1 µM. The “Factor XIIa IC50” value in assay [7] was greater than 100 µM. Also, the “KLK13 IC50” value in assay [8] was greater than 100 µM. Besides, the “Thrombin IC50” value in assay [9] was greater than 100 µM. The “Plasmin IC50” value in assay [10] was greater than 100 µM.

Turning to MCE[NMeS]ICRV-NH2 (linker 2-6 via mXylyl) [R2019], in assay [1], the “Avg. IC50” value was determined as 0.0523 µM. Moreover, the “Human Kallikrein IC50” value in [2] was 0.0523 µM. In addition, the “Mouse Kallikrein IC50” value in [3] came out at 0.0856 µM. Also, the “Factor VIIa IC50” value in assay [4] is greater than 100 µM. Also, the “Factor Xa IC50” value in [5] was greater than 10 µM. Moreover, the “Factor XIa IC50” value in assay [6] was greater than 9.1 µM. For the same molecule, the “Factor XIIa IC50” value in [7] was greater than 12.5 µM. For the same molecule, the “KLK13 IC50” value in assay [8] was greater than 16.4 µM. The “Thrombin IC50” value in assay [9] is greater than 100 µM. For the same molecule, the “Plasmin IC50” value in assay [10] is greater than 21 µM.

Take Heptanoyl-CESICRV-NH2 (linker 1-5 via mXylyl) [R2041]: the “Avg. IC50” value in [1] turned out to be 0.0242 µM. In addition, the “Human Kallikrein IC50” value in [2] was 0.0242 µM. Also, the “Mouse Kallikrein IC50” value in assay [3] was determined as 0.191 µM. Further, the “Factor VIIa IC50” value in assay [4] was greater than 17.9 µM. Also, the “Factor Xa IC50” value in [5] is greater than 7 µM. Moreover, the “Factor XIa IC50” value in assay [6] is greater than 5.4 µM. The “Factor XIIa IC50” value in [7] was greater than 100 µM. In addition, the “KLK13 IC50” value in [8] is greater than 100 µM. Moreover, the “Thrombin IC50” value in assay [9] is greater than 100 µM. The “Plasmin IC50” value in assay [10] is greater than 100 µM.

B1: R2051 (peptide)
peptide: {des‑NH2}-CESICRV-NH2
modifications: linker 1-5 via mXylyl; not fully specified (residue 1); printed as [mXylyl(1,5)](des-NH2)C-ESICRV-NH2
Regarding B1, in assay [1], the “Avg. IC50” value came out at 0.0129 µM. For the same molecule, in assay [2], the “Human Kallikrein IC50” value was determined as 0.0129 µM. The “Mouse Kallikrein IC50” value in [3] was 0.0193 µM. The “Factor VIIa IC50” value in assay [4] was greater than 100 µM. For the same molecule, the “Factor Xa IC50” value in assay [5] is greater than 100 µM. Besides, in [6], the “Factor XIa IC50” value was greater than 8.3 µM. The “Factor XIIa IC50” value in assay [7] was greater than 100 µM. The “KLK13 IC50” value in [8] was greater than 100 µM. The “Thrombin IC50” value in [9] is greater than 100 µM. Also, the “Plasmin IC50” value in assay [10] was greater than 100 µM.

Regarding MCESICR[Tle]-NH2 (linker 2-6 via mXylyl) [R2010], the “Avg. IC50” value in assay [1] worked out at 0.0099 µM. In assay [2], the “Human Kallikrein IC50” value turned out to be 0.0099 µM. Moreover, the “Mouse Kallikrein IC50” value in assay [3] was found to be 0.0388 µM. For the same molecule, the “Factor VIIa IC50” value in assay [4] was greater than 100 µM. Moreover, the “Factor Xa IC50” value in [5] was greater than 100 µM. Besides, the “Factor XIa IC50” value in assay [6] is greater than 15 µM. The “Factor XIIa IC50” value in [7] is greater than 100 µM. Moreover, the “KLK13 IC50” value in [8] is greater than 100 µM. Also, the “Thrombin IC50” value in assay [9] was greater than 100 µM. The “Plasmin IC50” value in [10] is greater than 100 µM.

As to Ac-CAS[Phg]CR[Tle]-NH2 (linker 1-5 via mXylyl) [R2036], in assay [1], the “Avg. IC50” value worked out at 0.0064 µM. The “Human Kallikrein IC50” value in assay [2] is 0.0064 µM. Besides, the “Mouse Kallikrein IC50” value in assay [3] came to 0.0128 µM. In addition, in [4], the “Factor VIIa IC50” value was greater than 100 µM. Moreover, the “Factor Xa IC50” value in assay [5] was greater than 7 µM. Also, the “Factor XIa IC50” value in assay [6] was greater than 4.8 µM. For the same molecule, the “Factor XIIa IC50” value in assay [7] is greater than 100 µM. Further, the “KLK13 IC50” value in assay [8] is greater than 100 µM. Besides, the “Thrombin IC50” value in assay [9] was greater than 100 µM. In addition, in assay [10], the “Plasmin IC50” value is greater than 19.5 µM.

In the case of MCESICRV-NH2 (linker 2-6 via mXylyl) [R2006], in assay [1], the “Avg. IC50” value was determined as 0.0118 µM. The “Human Kallikrein IC50” value in assay [2] is 0.025 µM. For the same molecule, the “Mouse Kallikrein IC50” value in assay [3] turned out to be 0.042 µM. In assay [4], the “Factor VIIa IC50” value was greater than 100 µM. In addition, the “Factor Xa IC50” value in [5] was greater than 7 µM. In addition, the “Factor XIa IC50” value in [6] was greater than 11.6 µM. In addition, the “Factor XIIa IC50” value in assay [7] was greater than 100 µM. In addition, in assay [8], the “KLK13 IC50” value was greater than 100 µM. Besides, in assay [9], the “Thrombin IC50” value was greater than 100 µM. Also, the “Plasmin IC50” value in assay [10] is greater than 100 µM.

Take [Nva]CEP[Phg]CR[Tle]-NH2 (linker 2-6 via mXylyl) [R2030]: the “Avg. IC50” value in assay [1] was determined as 0.025 µM. Also, in assay [2], the “Human Kallikrein IC50” value is 0.025 µM. Also, the “Mouse Kallikrein IC50” value in assay [3] stood at 0.0639 µM. Besides, in assay [4], the “Factor VIIa IC50” value was greater than 100 µM. In assay [5], the “Factor Xa IC50” value was greater than 100 µM. Moreover, the “Factor XIa IC50” value in [6] is greater than 10.4 µM. In addition, the “Factor XIIa IC50” value in assay [7] is greater than 100 µM. In addition, the “KLK13 IC50” value in [8] is greater than 100 µM. In addition, in assay [9], the “Thrombin IC50” value is greater than 100 µM. Further, in assay [10], the “Plasmin IC50” value was greater than 100 µM.

As for MCNYWSPWTECSR-NH2 (linker 2-11 via mXylyl) [R2003], the “Avg. IC50” value in assay [11] and in assay [12] was 0.0031 µM throughout.

As to MCNYWSPWTECSA-NH2 (cysteine pairing not given here) [R2104], in assay [12], the “Avg. IC50” value turned out to be 0.0034 µM. For the same molecule, in assay [2], the “Human Kallikrein IC50” value was 0.0034 µM. Besides, in [3], the “Mouse Kallikrein IC50” value came to 0.0112 µM. The “Factor VIIa IC50” value in assay [4] is greater than 100 µM. The “Factor Xa IC50” value in assay [5] is greater than 100 µM. In assay [6], the “Factor XIa IC50” value was greater than 5 µM. The “Factor XIIa IC50” value in assay [7] is greater than 100 µM. In addition, the “KLK13 IC50” value in assay [8] was greater than 100 µM. Also, the “Thrombin IC50” value in assay [9] was greater than 100 µM. In addition, the “Plasmin IC50” value in assay [10] came to 5.8 µM.

For the molecule MCESICRVLRYSE-NH2 (linker 2-6 via mXylyl) [R2004], the “Avg. IC50” value in assay [11] and in assay [1] was 0.000501 µM throughout.

B2: R2047 (peptide)
peptide: Ac-CASICRV-NH2
modifications: linker 1-5 via mXylyl; not fully specified (residue 2); printed as [mXylyl(1,5)]Ac-C-a-SICRV-NH2
Turning to B2, in assay [1], the “Avg. IC50” value was determined as 0.0174 µM. Also, the “Human Kallikrein IC50” value in [2] amounted to 0.0323 µM. Moreover, the “Mouse Kallikrein IC50” value in assay [3] was found to be 0.0367 µM. In addition, the “Factor VIIa IC50” value in [4] is greater than 100 µM. In [5], the “Factor Xa IC50” value was greater than 100 µM. Besides, in assay [6], the “Factor XIa IC50” value was greater than 13.8 µM. Moreover, the “Factor XIIa IC50” value in assay [7] is greater than 100 µM. Besides, the “KLK13 IC50” value in assay [8] is greater than 100 µM. Moreover, the “Thrombin IC50” value in assay [9] was greater than 100 µM. The “Plasmin IC50” value in assay [10] is greater than 100 µM.
